The values below come from paper PMC3166620.

The target of test [1] is Biotinylated CHIP (UniProt Q9UNE7). The experiment in a line: BLI. In general terms: In BLI a coated tip is dipped into the sample, and binding shifts an interference pattern.
Test [2] concerns the target Biotinylated Ub-CHIP (monoubiquitinated CHIP) (UniProt P0CG48). The experiment in a line: BLI.

Chain of UniProt Q9UNE7 (Q9UNE7 whole entry): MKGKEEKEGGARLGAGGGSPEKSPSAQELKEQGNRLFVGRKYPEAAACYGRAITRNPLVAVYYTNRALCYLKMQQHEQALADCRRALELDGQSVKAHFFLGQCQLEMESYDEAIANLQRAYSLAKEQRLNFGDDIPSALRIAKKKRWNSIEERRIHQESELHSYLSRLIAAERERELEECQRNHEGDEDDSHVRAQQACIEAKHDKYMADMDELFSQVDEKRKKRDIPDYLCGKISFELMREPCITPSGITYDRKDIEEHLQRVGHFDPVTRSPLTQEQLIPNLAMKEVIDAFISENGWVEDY

Usually Kd stands for the constant that tells how readily two partners part at equilibrium. Turning to “ataxin-3, normal (Q22), recombinant (from UniProt P54252 1-361) (enzyme)”, the results for the Kd in test [1] and in test [2] were 2200 nM and 120 nM, respectively.

For “ataxin-3, polyglutamine-expanded (Q80), recombinant (from UniProt P54252 1-361) (enzyme)”, the Kd in test [1] was 390 nM; in test [2], 750 nM.
